From article PMC9482650, “Quantitative fragmentomics allow affinity mapping of interactomes” (Nature Communications, 2022)

Experiments:
Assay in all cases: holdup assay
Set-up in all cases: key: below the threshold = too weak to quantify, mostly under pKd 3.1 to 4
[1] = target: T1, APBA1_1, Q02410
T1 sequence (Q02410 651-752, limits assumed, looked up): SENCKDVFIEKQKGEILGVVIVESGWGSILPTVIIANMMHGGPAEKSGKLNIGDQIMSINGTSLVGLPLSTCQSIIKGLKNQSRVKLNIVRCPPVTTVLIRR

[2] = target: T2, ARHGEF11, O15085
T2 sequence (O15085 42-136, limits assumed, looked up): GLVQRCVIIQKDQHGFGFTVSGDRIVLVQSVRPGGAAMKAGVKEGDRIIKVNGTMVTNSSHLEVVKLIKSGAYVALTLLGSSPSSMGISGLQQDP

[3] = target: ARHGEF12, Q9NZN5-2
[4] = target: DLG5_1, Q8TDM6
[5] = target: FRMPD3, Q5JV73
[6] = target: GRID2IP_2, A4D2P6
[7] = target: T3, GRIP1_2, Q9Y3R0
T3 sequence (Q9Y3R0 145-248, limits assumed, looked up): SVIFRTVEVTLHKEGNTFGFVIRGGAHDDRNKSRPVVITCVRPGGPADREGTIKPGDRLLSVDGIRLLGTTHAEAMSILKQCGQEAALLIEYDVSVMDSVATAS

[8] = target: HTRA1, Q92743
[9] = target: IL16_1, Q14005
[10] = target: IL16_3, Q14005
[11] = target: Inadl_3, Q8NI35
[12] = target: Inadl_5, Q8NI35
[13] = target: LNX1_2, Q8TBB1
[14] = target: MAGI2_2, Q86UL8
[15] = target: MAGI3_2, Q5TCQ9
[16] = target: MAST1, Q9Y2H9
[17] = target: T4, MPP7, Q5T2T1
T4 sequence (Q5T2T1 134-230, limits assumed, looked up): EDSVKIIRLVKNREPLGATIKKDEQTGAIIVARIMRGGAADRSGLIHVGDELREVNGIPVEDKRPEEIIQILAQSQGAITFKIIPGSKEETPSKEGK

[18] = target: T5, NHERF3_3, Q5T2W1
T5 sequence (Q5T2W1 238-333, limits assumed, looked up): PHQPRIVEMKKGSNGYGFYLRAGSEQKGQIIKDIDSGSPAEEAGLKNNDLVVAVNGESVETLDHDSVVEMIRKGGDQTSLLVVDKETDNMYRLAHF

[19] = target: PDLIM1, O00151
[20] = target: T6, PDZRN3_1, Q9UPQ7
T6 sequence (Q9UPQ7 244-349, limits assumed, looked up): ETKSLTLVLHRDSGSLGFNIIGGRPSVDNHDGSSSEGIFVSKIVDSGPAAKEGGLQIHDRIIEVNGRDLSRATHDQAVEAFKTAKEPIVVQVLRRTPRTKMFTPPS

[21] = target: PTPN3, P26045
[22] = target: T7, RADIL, Q96JH8
T7 sequence (Q96JH8 971-1071, limits assumed, looked up): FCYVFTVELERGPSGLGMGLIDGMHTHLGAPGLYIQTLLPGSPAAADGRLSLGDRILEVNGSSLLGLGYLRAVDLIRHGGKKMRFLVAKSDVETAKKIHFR

[23] = target: T8, RAPGEF6, Q8TEU7
T8 sequence (Q8TEU7 525-625, limits assumed, looked up): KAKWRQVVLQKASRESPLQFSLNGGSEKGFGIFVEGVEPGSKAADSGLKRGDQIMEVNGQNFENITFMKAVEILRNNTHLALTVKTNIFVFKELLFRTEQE

[24] = target: T9, RHPN1, Q8TCX5
T9 sequence (Q8TCX5 508-602, limits assumed, looked up): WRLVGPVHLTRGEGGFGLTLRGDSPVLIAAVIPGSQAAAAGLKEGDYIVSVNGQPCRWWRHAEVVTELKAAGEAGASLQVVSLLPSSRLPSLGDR

[25] = target: T10, SNTA1, Q13424
T10 sequence (Q13424 82-180, limits assumed, looked up): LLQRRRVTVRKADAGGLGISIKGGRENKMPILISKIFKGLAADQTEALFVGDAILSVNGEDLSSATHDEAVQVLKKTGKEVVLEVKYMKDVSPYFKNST

[26] = target: T11, SNTG2, Q9NY99
T11 sequence (Q9NY99 68-166, limits assumed, looked up): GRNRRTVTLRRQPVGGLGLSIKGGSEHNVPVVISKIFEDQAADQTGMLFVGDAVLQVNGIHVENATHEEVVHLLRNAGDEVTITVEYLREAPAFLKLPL

[27] = target: TJP1_3, Q07157
[28] = plain residues with an end cap or a label only (N-terminal biotin on a linker: ado-ado)
[29] = plain residues with an end cap or a label only (N-terminal biotin on a linker: ttds)

Sequence of PDLIM1, O00151 (O00151 1-87): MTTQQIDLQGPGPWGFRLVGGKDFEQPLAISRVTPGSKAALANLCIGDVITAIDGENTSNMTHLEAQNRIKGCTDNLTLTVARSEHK
Sequence of HTRA1, Q92743 (Q92743 360-477): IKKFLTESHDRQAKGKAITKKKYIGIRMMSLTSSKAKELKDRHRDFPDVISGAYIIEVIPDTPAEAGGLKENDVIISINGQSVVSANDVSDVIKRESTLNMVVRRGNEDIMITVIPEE
Sequence of MAST1, Q9Y2H9 (Q9Y2H9 962-1065): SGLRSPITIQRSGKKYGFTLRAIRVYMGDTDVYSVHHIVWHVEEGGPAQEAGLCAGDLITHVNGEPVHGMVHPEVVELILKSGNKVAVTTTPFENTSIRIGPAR
Sequence of MAGI2_2, Q86UL8 (Q86UL8 410-522): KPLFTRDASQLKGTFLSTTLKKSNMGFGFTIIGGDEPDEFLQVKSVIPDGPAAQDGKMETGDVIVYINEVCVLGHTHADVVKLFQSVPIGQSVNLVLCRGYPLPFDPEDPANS
Sequence of TJP1_3, Q07157 (Q07157 416-512): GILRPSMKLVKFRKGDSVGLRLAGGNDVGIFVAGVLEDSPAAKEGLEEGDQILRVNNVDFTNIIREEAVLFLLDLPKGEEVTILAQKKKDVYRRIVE
Sequence of DLG5_1, Q8TDM6 (Q8TDM6 617-713): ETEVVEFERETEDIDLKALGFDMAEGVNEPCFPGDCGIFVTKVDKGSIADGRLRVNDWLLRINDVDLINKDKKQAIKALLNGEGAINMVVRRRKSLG
Sequence of IL16_1, Q14005 (Q14005 210-306): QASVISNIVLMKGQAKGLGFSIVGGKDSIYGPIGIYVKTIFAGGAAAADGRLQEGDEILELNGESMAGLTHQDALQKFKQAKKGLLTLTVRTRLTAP
Sequence of GRID2IP_2, A4D2P6 (A4D2P6 272-370): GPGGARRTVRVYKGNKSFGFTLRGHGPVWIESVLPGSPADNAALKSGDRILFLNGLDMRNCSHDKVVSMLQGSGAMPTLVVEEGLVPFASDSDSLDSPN
Sequence of MAGI3_2, Q5TCQ9 (Q5TCQ9 398-503): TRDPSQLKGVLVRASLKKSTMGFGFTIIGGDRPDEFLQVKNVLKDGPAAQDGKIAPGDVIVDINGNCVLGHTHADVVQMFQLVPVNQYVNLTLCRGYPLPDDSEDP
Sequence of IL16_3, Q14005 (Q14005 1107-1207): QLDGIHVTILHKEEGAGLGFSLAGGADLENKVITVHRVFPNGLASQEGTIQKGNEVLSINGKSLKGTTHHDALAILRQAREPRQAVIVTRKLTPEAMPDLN
Sequence of Inadl_5, Q8NI35 (Q8NI35 673-780): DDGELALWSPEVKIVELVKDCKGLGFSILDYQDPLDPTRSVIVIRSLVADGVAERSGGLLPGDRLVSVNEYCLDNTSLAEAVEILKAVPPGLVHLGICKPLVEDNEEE
Sequence of PTPN3, P26045 (P26045 505-587): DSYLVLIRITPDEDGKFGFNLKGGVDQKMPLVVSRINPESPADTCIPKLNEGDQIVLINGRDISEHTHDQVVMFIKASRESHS
Sequence of LNX1_2, Q8TBB1 (Q8TBB1 371-470): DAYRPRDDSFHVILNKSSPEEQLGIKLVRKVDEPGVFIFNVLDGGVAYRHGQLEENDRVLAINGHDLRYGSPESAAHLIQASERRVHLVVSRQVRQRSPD
Sequence of Inadl_3, Q8NI35 (Q8NI35 359-469): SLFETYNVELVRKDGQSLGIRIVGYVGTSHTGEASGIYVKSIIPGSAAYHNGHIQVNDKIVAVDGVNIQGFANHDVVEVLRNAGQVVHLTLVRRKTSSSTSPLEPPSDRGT
Sequence of FRMPD3, Q5JV73 (Q5JV73 12-100): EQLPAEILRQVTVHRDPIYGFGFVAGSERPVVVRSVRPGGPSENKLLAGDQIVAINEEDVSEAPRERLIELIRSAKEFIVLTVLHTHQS
Sequence of ARHGEF12, Q9NZN5-2 (Q9NZN5 other isoform, or with tags, fused parts or gaps): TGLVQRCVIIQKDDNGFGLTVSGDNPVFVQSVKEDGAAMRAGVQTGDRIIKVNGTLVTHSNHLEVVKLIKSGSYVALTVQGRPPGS

TETASVCTKV [SLC23A1, Q9UHI7]
pKd [1, 28]: below the threshold
pKd [2, 28]: 4.24
pKd [3, 28]: 3.88
pKd [4, 28]: below the threshold
pKd [5, 28]: below the threshold
pKd [6, 28]: 3.98
pKd [7, 28]: below the threshold
pKd [8, 28]: 3.73
pKd [9, 28]: below the threshold
pKd [10, 28]: below the threshold
pKd [11, 28]: below the threshold
pKd [12, 28]: below the threshold
pKd [13, 28]: below the threshold
pKd [14, 28]: 3.48
pKd [15, 28]: 4.18
pKd [16, 28]: 4.85
pKd [17, 28]: below the threshold
pKd [18, 28]: 3.7
pKd [19, 28]: below the threshold
pKd [20, 28]: 3.53
pKd [21, 28]: 3.97
pKd [22, 28]: 3.96
pKd [23, 28]: below the threshold
pKd [24, 28]: 4.38
pKd [25, 28]: 4
pKd [26, 28]: 3.82
pKd [27, 28]: below the threshold

DPRNTQTSQI [ABRAXAS2, Q15018]
pKd [1, 29]: below the threshold
pKd [2, 29]: 4.03
pKd [3, 29]: 4.44
pKd [4, 29]: below the threshold
pKd [5, 29]: below the threshold
pKd [6, 29]: 4.24
pKd [7, 29]: 3.57
pKd [8, 29]: 3.64
pKd [9, 29]: 3.59
pKd [10, 29]: below the threshold
pKd [11, 29]: below the threshold
pKd [12, 29]: below the threshold
pKd [13, 29]: below the threshold
pKd [14, 29]: 3.59
pKd [15, 29]: below the threshold
pKd [16, 29]: 4.32
pKd [17, 29]: below the threshold
pKd [18, 29]: below the threshold
pKd [19, 29]: below the threshold
pKd [20, 29]: 3.54
pKd [21, 29]: 3.77
pKd [22, 29]: below the threshold
pKd [23, 29]: below the threshold
pKd [24, 29]: 4.43
pKd [25, 29]: below the threshold
pKd [26, 29]: 3.7
pKd [27, 29]: below the threshold

LCALPKVTTV [AGMAT, Q9BSE5]
pKd [1, 29]: below the threshold
pKd [2, 29]: 4.52
pKd [3, 29]: 4.67
pKd [4, 29]: below the threshold
pKd [5, 29]: below the threshold
pKd [6, 29]: 4.01
pKd [7, 29]: below the threshold
pKd [8, 29]: 4.75
pKd [9, 29]: 4.06
pKd [10, 29]: below the threshold
pKd [11, 29]: 3.54
pKd [12, 29]: below the threshold
pKd [13, 29]: 4.42
pKd [14, 29]: 4.18
pKd [15, 29]: 4.82
pKd [16, 29]: 3.88
pKd [17, 29]: below the threshold
pKd [18, 29]: below the threshold
pKd [19, 29]: below the threshold
pKd [20, 29]: below the threshold
pKd [21, 29]: 4.4
pKd [22, 29]: 4.59
pKd [23, 29]: 3.63
pKd [24, 29]: 4.24
pKd [25, 29]: 4.81
pKd [26, 29]: 4.24
pKd [27, 29]: below the threshold

SRRPRTETQV [HPV31-E6, P17386]
pKd [1, 29]: below the threshold
pKd [2, 29]: 3.58
pKd [3, 29]: 3.86
pKd [4, 29]: below the threshold
pKd [5, 29]: below the threshold
pKd [6, 29]: below the threshold
pKd [7, 29]: below the threshold
pKd [8, 29]: below the threshold
pKd [9, 29]: below the threshold
pKd [10, 29]: below the threshold
pKd [11, 29]: below the threshold
pKd [12, 29]: below the threshold
pKd [13, 29]: below the threshold
pKd [14, 29]: 6.38
pKd [15, 29]: 5.87
pKd [16, 29]: 4.42
pKd [17, 29]: below the threshold
pKd [18, 29]: below the threshold
pKd [19, 29]: below the threshold
pKd [20, 29]: 4.09
pKd [21, 29]: 4.66
pKd [22, 29]: below the threshold
pKd [23, 29]: below the threshold
pKd [24, 29]: 3.74
pKd [25, 29]: 4.29
pKd [26, 29]: 4.08
pKd [27, 29]: below the threshold

QFQYAKESYI [TAGAP, Q8N103]
pKd [1, 29]: below the threshold
pKd [2, 29]: below the threshold
pKd [3, 29]: 3.91
pKd [4, 29]: below the threshold
pKd [5, 29]: below the threshold
pKd [6, 29]: 3.72
pKd [7, 29]: below the threshold
pKd [8, 29]: 4.03
pKd [9, 29]: 4.65
pKd [10, 29]: below the threshold
pKd [11, 29]: below the threshold
pKd [12, 29]: below the threshold
pKd [13, 29]: below the threshold
pKd [14, 29]: 3.5
pKd [15, 29]: 4.6
pKd [16, 29]: 3.54
pKd [17, 29]: below the threshold
pKd [18, 29]: below the threshold
pKd [19, 29]: below the threshold
pKd [20, 29]: 4.18
pKd [21, 29]: 4.84
pKd [22, 29]: 3.69
pKd [23, 29]: below the threshold
pKd [24, 29]: 4.68
pKd [25, 29]: 4.97
pKd [26, 29]: 4.42
pKd [27, 29]: below the threshold

FVHPILQSAV [PRKCA, P17252]
pKd [1, 28]: below the threshold
pKd [2, 28]: 4.17
pKd [3, 28]: 4.22
pKd [4, 28]: below the threshold
pKd [5, 28]: below the threshold
pKd [6, 28]: 4.36
pKd [7, 28]: below the threshold
pKd [8, 28]: below the threshold
pKd [9, 28]: 4.33
pKd [10, 28]: below the threshold
pKd [11, 28]: below the threshold
pKd [12, 28]: below the threshold
pKd [13, 28]: below the threshold
pKd [14, 28]: 3.9
pKd [15, 28]: 4.32
pKd [16, 28]: 4.23
pKd [17, 28]: below the threshold
pKd [18, 28]: below the threshold
pKd [19, 28]: below the threshold
pKd [20, 28]: 4.21
pKd [21, 28]: 4.59
pKd [22, 28]: 3.57
pKd [23, 28]: below the threshold
pKd [24, 28]: 4.18
pKd [25, 28]: 3.91
pKd [26, 28]: 3.64
pKd [27, 28]: below the threshold
